Laboratory results taken from article PMC4081090, “Structure of the N-glycosidase MilB in complex with hydroxymethyl CMP reveals its Arg23 specifically recognizes the substrate and controls its entry” (Nucleic Acids Research, 2014).
Numbering of substitutions follows the chain as printed. In names and notes the source's numbering stands.

B1: N-glycosidase MilB, wild type (enzyme, Streptomyces remofaciens ZJU5119, UniProt B4Y381 1-170, looked up)
chain: MTTTPKPRTAPAVGSVFLGGPFRQLVDPRTGVMSSGDQNVFSRLIEHFESRGTTVYNAHRREAWGAEFLSPAEATRLDHDEIKAADVFVAFPGVPASPGTHVEIGWASGMGKPMVLLLERDEDYAFLVTGLESQANVEILRFSGTEEIVERLDGAVARVLGRAGEPTVIG
notes: MilB, N-glycosidase (CMP/hydroxymethyl CMP hydrolase) of the mildiomycin biosynthesis pathway, Streptomyces remofaciens ZJU5119; the full-length protein consists of 170 residues; residues 12-169 are seen in the crystal model; Cloned into pET28a with an N-terminal 6xHis tag; also called WT MilB; full-length MilB; source: E. coli BL21(DE3), purified (Ni-NTA, Superdex200 gel filtration)
B2: MilB (Streptomyces rimofaciens; R23M) (protein)
chain: B1 chain with R23M
notes: full-length (170 residues), N-terminal 6xHis tag (pET28a), E. coli BL21(DE3); dimer; crystal model residues 12-169 / 12-170

Columns and labels:
BlsM = target: T1, BlsM (Streptomyces griseochromogenes, UniProt Q841K1); assay: HPLC of released 5hmC, Michaelis-Menten fit; type: biochemical; settings: 50 mM Tris-HCl, pH 7.2, 37 °C, 30 min
T1 construct: N-terminal 6xHis tag (pET28a), E. coli BL21(DE3)
Excerpt: HPLC of released 5hmC, Michaelis-Menten fit on BlsM

[1] = substrate: Nc1nc(=O)n([C@@H]2O[C@H](COP(=O)(O)O)[C@@H](O)[C@H]2O)cc1CO; assay: HPLC of released 5hmC, Michaelis-Menten fit; type: biochemical, Streptomyces rimofaciens; settings: 50 mM Tris-HCl, pH 7.2, 37 °C, 30 min
Excerpt: HPLC of released 5hmC, Michaelis-Menten fit on MilB

[2] = target: the molecule itself; assay: SEC; size exclusion chromatography of MilB in solution (Figure S1); conditions of this run not given
[3] = substrate: Nc1ccn([C@@H]2O[C@H](COP(=O)(O)O)[C@@H](O)[C@H]2O)c(=O)n1; assay: HPLC of released cytosine, Michaelis-Menten fit; type: biochemical, Streptomyces rimofaciens; settings: 50 mM Tris-HCl, pH 7.2, 37 °C, 30 min
Excerpt: HPLC of released cytosine, Michaelis-Menten fit on MilB

T1 sequence (Q841K1 entry or part of it): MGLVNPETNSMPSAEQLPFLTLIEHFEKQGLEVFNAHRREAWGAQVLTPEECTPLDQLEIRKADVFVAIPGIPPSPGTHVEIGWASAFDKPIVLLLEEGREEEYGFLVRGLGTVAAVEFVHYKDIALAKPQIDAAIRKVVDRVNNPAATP

| Molecule | Km (BlsM) | Km [1] | kcat [1] | kcat/Km [1] | stoichiometry N [2] | Km [3] | kcat [3] | kcat/Km [3] |
| --- | --- | --- | --- | --- | --- | --- | --- | --- |
| Nc1nc(=O)n([C@@H]2O[C@H](COP(=O)(O)O)[C@@H](O)[C@H]2O)cc1CO [hmCMP, 5-hydroxymethyl cytidine 5′-monophosphate] | 328 µM | – | – | – | – | – | – | – |
| B1 | – | 71.55 (11.66) μM | 0.0531 s⁻¹ | 743 M⁻¹ s⁻¹ | 2 | – | – | – |
| B2 | – | 86.63 (10.67) μM | 0.0156 s⁻¹ | 180 M⁻¹ s⁻¹ | – | 1122.00 (100) μM | 0.0305 s⁻¹ | 27.1 M⁻¹ s⁻¹ |
